Results as given in patent publication US7425333B2, “Hypoallergenic allergy vaccines based on the timothy grass pollen allergen Phl p 7” (Biomay Produktions-und Handels-Aktiengesellschaft, priority 2002, dated 2008).
Changes are numbered by the printed parent chain. Numbers in names are those of the source.

Columns and labels:
Solubility observation = format: physicochemical
[1] = Secondary structure analysis by far-UV CD; format: physicochemical; conditions: for secondary structure (far-UV CD spectra): 20° C., 0.1 cm cell
Description: CD measurements were carried out on a Jasco J-715 spectropolarimeter using a 0.1 cm pathlength cell equilibrated at 20° C. Spectra were recorded with 0.5 nm resolution at a scan speed of 100 nm/min and resulted from averaging 3 scans. The final spectra were baseline-corrected by subtracting the corresponding MilliQ spectra obtained under identical conditions. Results were fitted with the secondary structure estimation program J-700.

[2] = tested on: timothy grass pollen allergic patients and a non-atopic individual; assay: Skin prick testing (SPT), immediate type skin reactions; format: in vivo, human; conditions: for mean wheal diameter: 8 μg/ml, timothy grass pollen allergic patients, 20 minutes; for skin reactions in the non-allergic individual: non-allergic individual (#4)
Description: The in vivo allergenic activity of the peptides and the mutant was studied by skin prick testing (SPT) in 3 timothy grass pollen allergic patients and a non-atopic individual. SPTs were performed on the individuals' forearms. Twenty microliter aliquots containing 2 concentrations of complete rPhl p 7 or Phl p 7-derived mutant M4 (2 μg/ml, 8 μg/ml) as well as two concentrations of Phl p 7-derived peptides (1 μg/ml m, 4 μg/ml ) were applied. In addition, standardized skin prick solutions (timothy grass pollen extract and histamine) (Allergopharma, Reinbeck, Germany) were tested. Reactions were recorded 20 minutes after SPT by photography and by transferring the ballpoint pen-surrounded wheal area with a scotch tape to paper. The mean wheal diameter (Dm) was calculated by measuring the maximal longitudinal and transversal diameter and dividing their sum by 2.

[3] = tested on: basophils of a timothy grass pollen allergic individual; assay: Basophil histamine release; format: cell-based, human; conditions: granulocytes of one allergic individual; for concentration of maximum histamine release: 10^−6-10 μg/ml tested
Description: FIG. 3A, B. Induction of histamine release from basophils of a timothy grass pollen allergic patient. Granulocytes of a timothy grass pollen allergic patient were incubated with various concentrations (x-axis) of rPhl p 7 wild type (P7), Phl p 7-derived peptides (P1, P2), Phl p 7-derived mutant (M4) or another antigen (Hom s 4) (FIG. 3A).
Granulocytes were isolated from heparinized blood samples of a timothy grass pollen allergic individual by dextran sedimentation. Cells were incubated with increasing concentrations (10^−6-10 μg/ml) of each peptide or the mutant, and, for control purposes, with rPhl p 7 wild type. Histamine released in the cell-free culture supernatant was measured by radioimmunoassay (Immunotech, Marseille, France). Total histamine was determined after freezing and thawing of the cells.

[4] = tested on: serum IgE of Phl p 7-sensitized grass pollen allergic patients; assay: IgE binding, dot blot with sera from ten timothy grass pollen allergic patients; parameters: species or system human
Text: The polypeptides of the invention show reduced binding to IgE antibodies from timothy grass pollen allergic patients compared with wild type Phl p 7 (SEQ ID NO:1). […] Recombinant Phl p 7 consisting substantially of the amino acid sequence as shown in SEQ ID NO:1 can be used to determine the IgE binding activity of wild type Phl p 7. IgE binding of polypeptides may be determined by Western blot analysis or dot blot experiments using serum from a timothy grass pollen allergic patient. Timothy grass pollen allergy is diagnosed according to a case history indicative for timothy grass pollen allergy (i.e., seasonal symptoms of allergy during the flowering period of grasses), positive skin test reaction to timothy grass pollen allergens and/or the detection of specific IgE antibodies to timothy grass pollen allergens in serum. Dot blots can be quantified by measuring the amount of ^125I-labeled anti-human IgE antibodies by gamma counting as described (Niederberger et al. J. Allergy Clin. Immunol. 1998, 102, 579-591).
(§1) Nitrocellulose blotted rPhl p 7 (lane Phl p 7) and rPhl p 7-derived mutants (lanes M1.6, M2A, M4) were probed with serum from a Phl p 7-sensitized grass pollen allergic patient. Bound IgE antibodies were detected with ^125I-labeled anti human IgE antibodies (FIG. 2A). Nitrocellulose dotted Phl p 7 and Phl p 7-derived mutants (M1.6, M2A, M4) as well the Phl p 7-derived peptides were probed with sera from ten Phl p 7-sensitized grass pollen allergic patients. Bound IgE antibodies were detected with ^125I-labeled anti human IgE antibodies (FIG. 2B).
(§2) The IgE binding capacity of purified Phl p 7-derived mutants (M1.6, M2A, M4) was compared with that of Phl p 7 wild type by western blot analysis using serum from a timothy grass pollen allergic patient (FIG. 2A) as well as by dot blot experiments using sera from ten timothy grass pollen allergic patients (FIG. 2B).
The IgE binding capacity of Phl p 7-derived peptides was compared with that of Phl p 7 wild type by dot blot experiments using sera from ten timothy grass pollen allergic patients (FIG. 2B). For both peptides the IgE binding capacity was completely abolished, when tested with serum from ten timothy grass pollen allergic patients.

[5] = tested on: serum IgE of a Phl p 7-sensitized grass pollen allergic patient; assay: IgE binding, western blot with serum of a timothy grass pollen allergic patient; parameters: species or system human; conditions: serum from one timothy grass pollen allergic patient
Text: as §1, §2

recombinant Aln g 4 = assay: Rabbit immunization, antiserum reactivity with Aln g 4 by dot blot; format: in vivo; conditions: rabbit antiserum diluted 1:1000
rPhl p 7 wild type = assay: Rabbit immunization, IgG reactivity with Phl p 7 by dot blot; format: in vivo; conditions: rabbits, 200 μg/injection, Freund's adjuvant; antiserum 1:500-1:2000

recombinant Aln g 4, sequence (O81701 whole entry): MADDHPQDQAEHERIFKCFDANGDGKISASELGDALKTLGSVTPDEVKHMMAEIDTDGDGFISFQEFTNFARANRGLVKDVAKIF

## C-terminal peptide: synthetic peptide comprising the complete C-terminal calcium-binding domain of Phl p 7 (SEQ ID NO:3), one cysteine added
Solubility observation
  solubility: significant decreased solubility and precipitation
[1]
  secondary structure (far-UV CD spectra): unfolded

## N-terminal peptide: synthetic peptide comprising the complete N-terminal calcium-binding domain of Phl p 7 (SEQ ID NO:2), one cysteine added
[1]
  secondary structure (far-UV CD spectra): random coil secondary structure

## NCCc1c[nH]cn1 [histamine, reference compound]
[2]; all individuals (3 allergic, 1 non-allergic)
  skin reaction to positive control: All individuals reacted

B1: Phl p 7 wild type: recombinantly produced wild type timothy grass pollen allergen Phl p 7, amino acid sequence SEQ ID NO:1 (protein)
chain: MADDMERIFKRFDTNGDGKISLSELTDALRTLGSTSADEVQRMMAEIDTDGDGFIDFNEFISFCNANPGLMKDVAKVF
modifications: Phleum pratense
[3]
  concentration of maximum histamine release: 10^−4 μg/ml
[1]
  secondary structure (far-UV CD spectra): significant larger α-helical signal
[2]; skin prick test, 2 μg/ml
  immediate type skin reactions: induced immediate type skin reactions
[2]; skin prick test
  mean wheal diameter: 9.3 mm
  skin reactions in the non-allergic individual: no reactions

B2: M1.6: Phl p 7-derived mutant, SEQ ID NO:4: 24E→24A (first EF-hand); 59E→59A (second EF-hand) (protein)
chain: B1 chain with E24A, E59A
[4]
  patients whose serum IgE bound (dot blot): six out of ten

B3: M2A: Phl p 7-derived mutant, SEQ ID NO:5: 17D→A, 24E→24A; 59E→59A (protein)
chain: B1 chain with D17A, E24A, E59A
[4]
  patients whose serum IgE bound (dot blot): five out of ten

B4: M4: Phl p 7-derived mutant, SEQ ID NO:6: 17D→A, 24E→24A; 52D→52A, 59E→59A (protein)
chain: B1 chain with D17A, E24A, D52A, E59A
[5]
  IgE binding capacity compared to Phl p 7 (western blot): strongest reduction
[3]
  concentration of maximum histamine release: 10^−3 μg/ml
[3]; increasing concentrations
  induction of histamine release: dose-dependent release of histamine
[1]
  secondary structure (far-UV CD spectra): increasing portion of random-coil secondary structure
[1]; second analysis comparing Phl p 7 and point mutant-4
  decrease of CD signal in contrast to normalized spectrum of rPhl p 7: approximately 20%
[4]
  patients whose serum IgE bound (dot blot): four out of ten
[4]; compared with Phl p 7 wild type
  IgE binding capacity (dot blot): strongest reduction of IgE binding capacity
Recombinant Aln g 4
  recognition of cross-reactive allergen Aln g 4 by rabbit antiserum raised against the immunogen: recognized the Phl p 7-cross-reactive allergen, Aln g 4
[2]; skin prick test
  mean wheal diameter: 7 mm
  skin reactions in the non-allergic individual: no reactions
[2]; skin prick test, allergic patients
  immediate skin reactions compared with Phl p 7 wild type: moderately weaker
rPhl p 7 wild type
  induction of IgG anti-Phl p 7 antibody response: induced IgG anti-Phl p 7 antibody responses
